One data set deals with biotinyl-Phe-oxazolone. Description: self-aminoacylation, catalytic enhancement (BFO) (fold over background); higher = more active; k-Seq, kA / k0A0; sequences stand for … in GGGAAUGGAUCCACAUCUACGAAUUC…UUCACUGCAGACUUGACGAAGCUG
The gist of the method: (§1)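 Mutagenized RNA pools with a 21-nt variable region (0.43 μM) were reacted with each biotinyl-aminoacyl-oxazolone at 2–1250 μM for 90 minutes at room temperature, in 50 μL HEPES/NaCl/KCl/MgCl2/CaCl2 buffer containing 5% acetonitrile at pH 6.9–7.0. RNA captured on streptavidin was quantified by triplicate qPCR and by Illumina sequencing. The fraction reacted for each sequence was fit to a pseudo-first-order model with bootstrapping, and catalytic enhancement is the median kA divided by the uncatalyzed rate, taken as the low-activity peak of a bimodal Gaussian fit.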

A further data set deals with biotinyl-Ile-oxazolone. Kind of data set: self-aminoacylation, catalytic enhancement (BIO) (fold over background); higher = more active; k-Seq, kA / k0A0; sequences stand for … in GGGAAUGGAUCCACAUCUACGAAUUC…UUCACUGCAGACUUGACGAAGCUG
A digest of the protocol:
as §1

For a further data set, the system named is biotinyl-Met-oxazolone. Kind of data set: self-aminoacylation, catalytic enhancement (BMO) (fold over background); higher = more active; k-Seq, kA / k0A0; sequences stand for … in GGGAAUGGAUCCACAUCUACGAAUUC…UUCACUGCAGACUUGACGAAGCUG
A digest of the protocol:
as §1

The subject of a further data set is biotinyl-Val-oxazolone. Description: self-aminoacylation, catalytic enhancement (BVO) (fold over background); higher = more active; k-Seq, kA / k0A0; sequences stand for … in GGGAAUGGAUCCACAUCUACGAAUUC…UUCACUGCAGACUUGACGAAGCUG
The gist of the method:
as §1

Another data set concerns biotinyl-Leu-oxazolone. Kind of data set: self-aminoacylation, catalytic enhancement (BLO) (fold over background); higher = more active; k-Seq, kA / k0A0; sequences stand for … in GGGAAUGGAUCCACAUCUACGAAUUC…UUCACUGCAGACUUGACGAAGCUG
The gist of the method:
as §1

The subject of another data set is biotinyl-Trp-oxazolone. Kind of data set: self-aminoacylation, catalytic enhancement (BWO) (fold over background); higher = more active; k-Seq, kA / k0A0; sequences stand for … in GGGAAUGGAUCCACAUCUACGAAUUC…UUCACUGCAGACUUGACGAAGCUG
A digest of the protocol: as §1

The record followed here is the supplement of paper PMC9233669.

This sample holds only a part of the variants without activity.

As to “CUACUUCAAACAACCGCUCUG [Fam1A.1 aminoacylation ribozyme variant]”, the self-aminoacylation in the data set on biotinyl-Phe-oxazolone was 0.457; in the data set on biotinyl-Ile-oxazolone it was 0.776; with biotinyl-Met-oxazolone it was 0.774; in the data set on biotinyl-Val-oxazolone, 0.769; in the data set on biotinyl-Leu-oxazolone it was 0.547; in the data set on biotinyl-Trp-oxazolone, 0.619.

Take “CCCCACUUCAAGCAAUCGUUC [Fam1B.1 aminoacylation ribozyme variant]”: the self-aminoacylation came to 1.77 with biotinyl-Phe-oxazolone; 0.898 in the data set on biotinyl-Ile-oxazolone; 0.697 in the data set with biotinyl-Met-oxazolone; 0.849 in the data set with biotinyl-Val-oxazolone; 0.697 with biotinyl-Leu-oxazolone; 1.12 in the data set with biotinyl-Trp-oxazolone.

Take “CUACUUCAAACAAUCCGUCAG [Fam1A.1 aminoacylation ribozyme variant]”: the self-aminoacylation is 0.797 in the data set on biotinyl-Phe-oxazolone; 0.951 with biotinyl-Ile-oxazolone; 0.684 with biotinyl-Met-oxazolone; 0.934 with biotinyl-Val-oxazolone; 0.613 in the data set on biotinyl-Leu-oxazolone; 0.643 with biotinyl-Trp-oxazolone.

Turning to “UAGUUUGCUAAUAGUGGCAAG [Fam3.1 aminoacylation ribozyme variant]”, the self-aminoacylation turned out to be 1.63 with biotinyl-Phe-oxazolone; 0.819 in the data set with biotinyl-Ile-oxazolone; 0.891 in the data set with biotinyl-Met-oxazolone; 0.688 in the data set on biotinyl-Val-oxazolone; 0.753 in the data set on biotinyl-Leu-oxazolone; 0.543 in the data set with biotinyl-Trp-oxazolone.

“AUUCACCGAGGUCAUAGGGUG [Fam2.2 aminoacylation ribozyme variant]”: the self-aminoacylation in the data set on biotinyl-Phe-oxazolone amounted to 7.43; with biotinyl-Ile-oxazolone, 1.71; in the data set on biotinyl-Met-oxazolone, 2.29; in the data set on biotinyl-Val-oxazolone, 1.91; in the data set with biotinyl-Leu-oxazolone it was 3.17; in the data set with biotinyl-Trp-oxazolone, 2.21.

“AUUACCCUGUACAUCGAGUGA [Fam2.1 aminoacylation ribozyme variant]”: the self-aminoacylation was 71.1 in the data set on biotinyl-Phe-oxazolone; 5.18 in the data set with biotinyl-Ile-oxazolone; 12.5 with biotinyl-Met-oxazolone; 6.19 with biotinyl-Val-oxazolone; 11.6 with biotinyl-Leu-oxazolone; 13.2 in the data set with biotinyl-Trp-oxazolone.

Regarding “AUUACCCUGGUCAUCGAGGCA [Fam2.1 aminoacylation ribozyme variant]”, the self-aminoacylation in the data set on biotinyl-Phe-oxazolone turned out to be 1.25; in the data set with biotinyl-Ile-oxazolone it was 1.29; in the data set on biotinyl-Met-oxazolone it was 1.9; in the data set with biotinyl-Val-oxazolone it was 1.59; in the data set with biotinyl-Leu-oxazolone, 1.97; with biotinyl-Trp-oxazolone, 0.847.

Consider “ACAUUUGCUAAUAGUCGCAAG [Fam3.1 aminoacylation ribozyme variant]”, for which the self-aminoacylation in the data set on biotinyl-Phe-oxazolone is 2.27; in the data set on biotinyl-Ile-oxazolone, 2.46; in the data set on biotinyl-Met-oxazolone, 1.79; with biotinyl-Val-oxazolone, 1.92; in the data set on biotinyl-Leu-oxazolone, 2.43; with biotinyl-Trp-oxazolone, 1.32.

For “AAGUUUUCGAAUAGUCGCAAG [Fam3.1 aminoacylation ribozyme variant]”, the self-aminoacylation turned out to be 3.28 in the data set on biotinyl-Phe-oxazolone; 2.14 in the data set on biotinyl-Ile-oxazolone; 1.82 in the data set with biotinyl-Met-oxazolone; 1.81 with biotinyl-Val-oxazolone; 1.86 with biotinyl-Leu-oxazolone; 2.24 in the data set on biotinyl-Trp-oxazolone.

Regarding “AAGUUUGCUAAAAGUCGCUAG [Fam3.1 aminoacylation ribozyme variant]”, the self-aminoacylation with biotinyl-Phe-oxazolone is 1.38; with biotinyl-Ile-oxazolone, 0.911; in the data set on biotinyl-Met-oxazolone, 0.781; in the data set on biotinyl-Val-oxazolone it was 0.803; with biotinyl-Leu-oxazolone it was 0.944; with biotinyl-Trp-oxazolone, 0.783.

In the case of “AUUCACCUAGGUCAACGGAUG [Fam2.2 aminoacylation ribozyme variant]”, the self-aminoacylation in the data set on biotinyl-Phe-oxazolone was found to be 0.356; in the data set on biotinyl-Ile-oxazolone, 0.758; in the data set with biotinyl-Met-oxazolone it was 0.667; in the data set with biotinyl-Val-oxazolone it was 0.726; in the data set with biotinyl-Leu-oxazolone it was 0.549; in the data set with biotinyl-Trp-oxazolone, 0.259.

On to “AAGUUUGCUAAUAGUGGCAAA [Fam3.1 aminoacylation ribozyme variant]”, for which the self-aminoacylation in the data set with biotinyl-Phe-oxazolone is 0.91; in the data set with biotinyl-Ile-oxazolone, 1.09; in the data set on biotinyl-Met-oxazolone, 0.891; in the data set with biotinyl-Val-oxazolone it was 1.04; in the data set on biotinyl-Leu-oxazolone, 0.789; with biotinyl-Trp-oxazolone, 1.24.

As to “CAACUUCAAACAAUCGGUAUG [Fam1A.1 aminoacylation ribozyme variant]”, the self-aminoacylation is 33.3 in the data set with biotinyl-Phe-oxazolone; 1.21 with biotinyl-Ile-oxazolone; 1.31 in the data set on biotinyl-Met-oxazolone; 1.04 with biotinyl-Val-oxazolone; 1.61 in the data set on biotinyl-Leu-oxazolone; 21 in the data set on biotinyl-Trp-oxazolone.

As for “AUUAGCCUGGUCAUGGAGUGA [Fam2.1 aminoacylation ribozyme variant]”, the self-aminoacylation in the data set with biotinyl-Phe-oxazolone amounted to 17.2; in the data set with biotinyl-Ile-oxazolone it was 2.77; in the data set on biotinyl-Met-oxazolone, 4.09; in the data set on biotinyl-Val-oxazolone, 2.72; with biotinyl-Leu-oxazolone it was 4.02; with biotinyl-Trp-oxazolone it was 4.92.

Consider “AUUACCCUGGUCUUAGAGUGA [Fam2.1 aminoacylation ribozyme variant]”, for which the self-aminoacylation with biotinyl-Phe-oxazolone is 39.5; in the data set with biotinyl-Ile-oxazolone it was 4.28; in the data set on biotinyl-Met-oxazolone it was 7.82; in the data set on biotinyl-Val-oxazolone it was 4.31; with biotinyl-Leu-oxazolone, 7.33; in the data set on biotinyl-Trp-oxazolone, 9.81.

On to “AAGUUUGAUAAUAGUAGCAAG [Fam3.1 aminoacylation ribozyme variant]”, for which the self-aminoacylation with biotinyl-Phe-oxazolone came to 0.835; with biotinyl-Ile-oxazolone it was 0.724; with biotinyl-Met-oxazolone, 0.756; with biotinyl-Val-oxazolone, 0.691; in the data set with biotinyl-Leu-oxazolone, 0.535; in the data set with biotinyl-Trp-oxazolone, 0.667.

On to “AUUACCCUCGACAUCGAGUGA [Fam2.1 aminoacylation ribozyme variant]”, for which the self-aminoacylation came out at 83 in the data set on biotinyl-Phe-oxazolone; 4.58 with biotinyl-Ile-oxazolone; 11.5 in the data set on biotinyl-Met-oxazolone; 5.56 with biotinyl-Val-oxazolone; 12.7 in the data set on biotinyl-Leu-oxazolone; 14.5 in the data set with biotinyl-Trp-oxazolone.

As to “AUUACCCUGGUCAUCGAGAGU [Fam2.1 aminoacylation ribozyme variant]”, the self-aminoacylation in the data set with biotinyl-Phe-oxazolone is 1.79; with biotinyl-Ile-oxazolone, 0.803; in the data set on biotinyl-Met-oxazolone, 0.991; in the data set with biotinyl-Val-oxazolone it was 1.02; in the data set with biotinyl-Leu-oxazolone, 0.822; with biotinyl-Trp-oxazolone, 0.568.

Consider “AUUCACCUAAGUCAUCGGGUG [Fam2.2 aminoacylation ribozyme variant]”, for which the self-aminoacylation stood at 74.2 in the data set with biotinyl-Phe-oxazolone; 5.75 with biotinyl-Ile-oxazolone; 9.66 in the data set on biotinyl-Met-oxazolone; 5.58 in the data set with biotinyl-Val-oxazolone; 12.8 with biotinyl-Leu-oxazolone; 8.93 in the data set with biotinyl-Trp-oxazolone.

Consider “CCAUACUUCAAGGAAUCGGUC [Fam1B.1 aminoacylation ribozyme variant]”, for which the self-aminoacylation with biotinyl-Phe-oxazolone is 3.91; in the data set on biotinyl-Ile-oxazolone, 0.976; in the data set on biotinyl-Met-oxazolone, 1.06; in the data set with biotinyl-Val-oxazolone, 0.934; in the data set on biotinyl-Leu-oxazolone, 1.07; in the data set on biotinyl-Trp-oxazolone, 3.57.

Turning to “AAGUUUGCUAAUGGUAGCAAG [Fam3.1 aminoacylation ribozyme variant]”, the self-aminoacylation in the data set on biotinyl-Phe-oxazolone was 1.12; in the data set with biotinyl-Ile-oxazolone it was 1.02; in the data set with biotinyl-Met-oxazolone, 0.976; in the data set on biotinyl-Val-oxazolone, 0.994; in the data set with biotinyl-Leu-oxazolone, 0.692; with biotinyl-Trp-oxazolone, 0.649.

On to “CUACUUCAAAAAAUCGAUCUG [Fam1A.1 aminoacylation ribozyme variant]”, for which the self-aminoacylation in the data set on biotinyl-Phe-oxazolone was found to be 1.46; in the data set on biotinyl-Ile-oxazolone, 0.663; with biotinyl-Met-oxazolone, 0.601; in the data set with biotinyl-Val-oxazolone, 0.585; in the data set on biotinyl-Leu-oxazolone, 0.6; in the data set with biotinyl-Trp-oxazolone it was 0.604.

On to “AUUCACCUAGAUCACCGGGUG [Fam2.2 aminoacylation ribozyme variant]”, for which the self-aminoacylation in the data set with biotinyl-Phe-oxazolone came to 11.5; in the data set on biotinyl-Ile-oxazolone it was 2.42; with biotinyl-Met-oxazolone, 2.76; with biotinyl-Val-oxazolone, 2.55; with biotinyl-Leu-oxazolone, 3.69; in the data set with biotinyl-Trp-oxazolone, 2.86.

Take “CCAUACUUAAAGCAAUCGGUC [Fam1B.1 aminoacylation ribozyme variant]”: the self-aminoacylation in the data set on biotinyl-Phe-oxazolone amounted to 0.813; in the data set on biotinyl-Ile-oxazolone, 0.92; in the data set with biotinyl-Met-oxazolone, 0.804; in the data set on biotinyl-Val-oxazolone, 0.904; in the data set with biotinyl-Leu-oxazolone, 0.802; with biotinyl-Trp-oxazolone it was 0.674.

On to “AGGUUUGCUAUUAGUCGCAAG [Fam3.1 aminoacylation ribozyme variant]”, for which the self-aminoacylation in the data set with biotinyl-Phe-oxazolone was 3.21; with biotinyl-Ile-oxazolone, 1.28; with biotinyl-Met-oxazolone it was 1.17; in the data set on biotinyl-Val-oxazolone it was 1.17; in the data set with biotinyl-Leu-oxazolone, 1.49; in the data set with biotinyl-Trp-oxazolone, 1.08.
